Molecular target: Tripartite Motif Protein 28 (TRIM28), endogenous in HEK293T cells (UniProt Q13263)
Assay: co-immunoprecipitation (anti-FLAG IP, western blot band quantification)
Details: for percent of parent (rel. (PIV2-V = 100)): HEK293T cells transfected for 24 hours, n = 3, parent: 100, read off a plot

Chain of UniProt Q13263 (Q13263 whole entry): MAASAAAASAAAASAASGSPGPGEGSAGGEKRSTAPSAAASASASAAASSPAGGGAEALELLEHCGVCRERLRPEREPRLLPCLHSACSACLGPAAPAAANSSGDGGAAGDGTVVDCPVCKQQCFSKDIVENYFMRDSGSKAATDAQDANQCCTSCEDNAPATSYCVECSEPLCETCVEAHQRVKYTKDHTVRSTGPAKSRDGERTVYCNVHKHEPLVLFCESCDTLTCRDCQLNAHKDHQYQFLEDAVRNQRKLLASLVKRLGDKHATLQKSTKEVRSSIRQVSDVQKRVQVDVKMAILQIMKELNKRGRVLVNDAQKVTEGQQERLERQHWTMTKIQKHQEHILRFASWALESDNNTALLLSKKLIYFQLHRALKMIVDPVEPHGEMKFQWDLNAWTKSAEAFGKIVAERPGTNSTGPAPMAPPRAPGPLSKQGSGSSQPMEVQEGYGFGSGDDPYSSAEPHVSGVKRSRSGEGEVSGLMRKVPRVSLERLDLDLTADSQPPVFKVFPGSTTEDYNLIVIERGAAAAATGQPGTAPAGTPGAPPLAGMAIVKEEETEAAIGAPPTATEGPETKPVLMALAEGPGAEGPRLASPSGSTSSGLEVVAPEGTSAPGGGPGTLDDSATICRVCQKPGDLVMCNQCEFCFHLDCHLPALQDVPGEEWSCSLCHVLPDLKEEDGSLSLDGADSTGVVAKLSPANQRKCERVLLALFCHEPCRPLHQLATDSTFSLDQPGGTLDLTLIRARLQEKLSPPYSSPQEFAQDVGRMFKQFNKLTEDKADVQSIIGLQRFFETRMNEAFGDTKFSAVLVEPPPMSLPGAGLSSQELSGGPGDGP

Substance | percent of parent (rel. (PIV5-V = 100)) (n = 3, parent: 100, read off a plot) | percent of parent (rel. (PIV2-V = 100))
FLAG-tagged full-length PIV5-V (pCMV7.1_3xFlag) (from UniProt P11207) Y175W | 310 | 
FLAG-tagged full-length PIV2-V (pCMV7.1_3xFlag) (from UniProt P19847) F190T |  | 130
FLAG-tagged full-length PIV2-V (pCMV7.1_3xFlag) (from UniProt P19847) A181G |  | 110
FLAG-tagged full-length PIV2-V (pCMV7.1_3xFlag) (from UniProt P19847) Q186E |  | 130
FLAG-tagged full-length PIV2-V (pCMV7.1_3xFlag) (from UniProt P19847) W178Y |  | 50

Reference: article PMC12431652
